Results: patent publication US20210198347A1 (Chugai, published 2021)

T1: recombinant human C1r2s2 Flag/His tetramer (human, UniProt P09871 16-688; P00736 18-705)
T1 construct: whole entries named; also called hc1r2s2; rC1r2s2
T1 chain 1: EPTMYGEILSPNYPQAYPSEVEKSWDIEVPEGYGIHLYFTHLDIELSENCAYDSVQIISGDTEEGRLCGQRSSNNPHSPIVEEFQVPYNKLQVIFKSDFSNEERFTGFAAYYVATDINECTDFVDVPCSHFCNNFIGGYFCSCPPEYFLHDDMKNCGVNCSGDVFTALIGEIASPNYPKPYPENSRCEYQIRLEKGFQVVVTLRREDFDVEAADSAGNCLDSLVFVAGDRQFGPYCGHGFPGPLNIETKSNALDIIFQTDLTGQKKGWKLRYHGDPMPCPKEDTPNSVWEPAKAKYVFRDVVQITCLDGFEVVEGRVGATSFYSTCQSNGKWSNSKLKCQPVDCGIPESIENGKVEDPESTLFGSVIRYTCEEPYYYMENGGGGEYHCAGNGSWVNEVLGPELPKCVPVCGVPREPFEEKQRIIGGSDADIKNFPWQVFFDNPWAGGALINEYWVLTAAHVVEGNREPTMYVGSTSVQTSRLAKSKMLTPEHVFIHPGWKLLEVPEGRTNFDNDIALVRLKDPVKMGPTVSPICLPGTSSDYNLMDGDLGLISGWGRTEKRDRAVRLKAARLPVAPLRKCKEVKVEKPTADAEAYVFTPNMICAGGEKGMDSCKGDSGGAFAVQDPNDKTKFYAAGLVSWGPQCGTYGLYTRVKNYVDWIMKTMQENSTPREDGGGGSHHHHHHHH
T1 chain 2: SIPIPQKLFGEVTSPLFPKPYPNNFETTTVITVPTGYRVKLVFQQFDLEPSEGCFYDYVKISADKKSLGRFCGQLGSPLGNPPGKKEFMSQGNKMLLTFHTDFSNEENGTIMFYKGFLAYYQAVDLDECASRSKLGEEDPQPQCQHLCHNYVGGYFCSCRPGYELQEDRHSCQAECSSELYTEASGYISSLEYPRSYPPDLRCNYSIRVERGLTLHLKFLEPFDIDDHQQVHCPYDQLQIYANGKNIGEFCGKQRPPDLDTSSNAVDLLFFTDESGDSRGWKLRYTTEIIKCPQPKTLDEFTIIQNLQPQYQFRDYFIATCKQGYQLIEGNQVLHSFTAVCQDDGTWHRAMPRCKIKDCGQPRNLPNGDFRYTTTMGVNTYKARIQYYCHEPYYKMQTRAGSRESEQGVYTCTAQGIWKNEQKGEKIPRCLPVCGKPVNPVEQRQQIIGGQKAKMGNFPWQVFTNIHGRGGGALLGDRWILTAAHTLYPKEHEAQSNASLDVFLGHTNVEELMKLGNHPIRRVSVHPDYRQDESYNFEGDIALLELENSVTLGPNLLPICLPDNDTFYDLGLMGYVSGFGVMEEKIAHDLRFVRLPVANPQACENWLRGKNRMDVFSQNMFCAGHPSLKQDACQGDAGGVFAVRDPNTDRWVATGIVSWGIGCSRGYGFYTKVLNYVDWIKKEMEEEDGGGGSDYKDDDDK

T2: recombinant human C1r CCP1-CCP2-SP-FLAG (human, UniProt P00736 307-705)
T2 construct: Truncated protein lacking the CUB1-EGF-CUB2 domain of C1r; also called human C1r CCP1-CCP2-SP I307-D705
T2 chain: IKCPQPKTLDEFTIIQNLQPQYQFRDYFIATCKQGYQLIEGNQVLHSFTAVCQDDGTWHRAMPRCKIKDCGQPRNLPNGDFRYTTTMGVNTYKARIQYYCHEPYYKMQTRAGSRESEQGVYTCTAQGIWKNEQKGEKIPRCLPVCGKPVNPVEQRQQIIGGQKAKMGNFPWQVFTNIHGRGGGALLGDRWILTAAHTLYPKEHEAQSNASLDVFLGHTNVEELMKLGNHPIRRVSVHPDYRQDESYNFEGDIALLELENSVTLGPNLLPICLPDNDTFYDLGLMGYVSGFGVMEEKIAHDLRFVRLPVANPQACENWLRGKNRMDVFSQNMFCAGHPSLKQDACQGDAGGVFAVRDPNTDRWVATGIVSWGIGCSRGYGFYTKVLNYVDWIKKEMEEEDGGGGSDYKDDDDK


Columns and labels:
[1] = molecular target: T1, recombinant human C1r2s2 Flag/His …; experiment: SPR displacement (37 degrees C, pH 7.4): C1r2s2 captured by anti-His, C1q 100 nM pre-bound, antibody 500 nM at 10 micro L/min; time from antibody injection until the antibody sensorgram falls below the buffer sensorgram; competitor native human C1q
Protocol: An anti-His antibody (GE-Healthcare) is immobilized onto all flow cells of a CM4 sensor chip using an amine coupling kit (GE Healthcare). The antibodies, recombinant human C1r2s2 Flag/His tetramer and native human C1q (Comptech A099) are prepared in pH 7.4 buffer (20 mM ACES, 150 mM NaCl, 1.2 mM CaCl₂, 1 mg/mL BSA (IgG-free), 1 mg/mL CMD, 0.05% Tween 20, 0.005% NaN₃, pH 7.4). Recombinant human C1r2s2 Flag/His tetramer is first captured onto the sensor surface by the anti-His antibody (“hc1r2s2”). The capture levels are aimed at 200 resonance unit (RU). Native human C1q is injected at 100 nM to have a capture of 200 RU (“hc1q”), followed by antibody injection at 500 nM at 10 micro L/min for 1200 sec immediately. The sensor surface is regenerated each cycle with 10 mM Glycine-HCl (pH 1.5). For antibodies with the C1q displacement function, the response unit of Sensorgram 2 (in the presence of C1r2s2, C1q, and antibody) is lower than the response unit in Sensorgram 1 (in the presence of C1r2s2, C1q, and buffer, but in the absence of antibody) after the time point where Sensorgrams 1 and 2 cross (“time point of crossover”).
The time point of crossover is identified by subtraction of the buffer response (Sensorgram 1) from the antibody (Ab) response (Sensorgram 2), and referring to the time point when the differential value changes from positive to negative (Table 5).

[2] = molecular target: T2, recombinant human C1r CCP1-CCP2-SP-FLAG; experiment: SPR (BIACORE T200, 37 degrees C, pH 7.4, 1.2 mM CaCl2), antibody captured by protein A/G

Binder	Time point of crossover (post-injection) [1] [s]	binding result [2]
COR0205gg-SG1148 (antibody, human IgG1, kappa, V domains shown, Anti-C1r antibody; also called COR205gg(-SG1148)) VH: QSLEESGGGLFKPTDTLTLTCTVSGFSLSSNAMSWVRQAPGKGLEYIGIIYLTGVTYYATWAKGRFTISKTSTTVDLKITSPTTEDTATYFCAGGEFSLWGPGTLVTVSS VL: DIIMTQTPASVEAAVGGTVTIKCQASQGIDNYFSWHQQKPGQPPKLLIYKASTLASGVSSRFKGSGSGTEFTLTISDLECDDAATYYCQCTYGYNINDNYGNAFGGGTKVEIKR	216	no binding (tested: 50 nM)
COR0067ff-SG1148 (antibody, human IgG1, kappa, V domains shown, Anti-C1r antibody) VH: QSLEESGGGLVQPEGSLTLTCKASGIDFSSNAMCWVRQAPGKGLEWIGCIYTGSTTIWYASWAKGRFTISKTSSTTVTLQLNSLTVADTATYFCARRDSSSGYAFKLWGPGTLVTVSS VL: DIVMTQTPSSVSAAVGGTVTIKCQASENIYSNLAWYQQKSGQPPNLLIYGASTLESGVPSRFKGSGSGTEFTLTISDLECADAAIYYCQCTYDDSSTFGGGTKVEIKR	85	no binding (tested: 50 nM)
COR0011bb-SG1148 (antibody, human IgG1, kappa, V domains shown, Anti-C1r antibody) VH: QSLEESGGRLVTPGTPLTLTCTASGFTFSGYYMCWVRQTPGKGLEYIGIIASSGNTYYANWAKGRFTISKTSSTTVDLKMTSLTTEDTATYFCAKPESDYVNGMGLWGPGTLVTVSS VL: DIVMTQTPASVSDPVGGTVTIKCQASQSIYNLLSWYQQKPGQRPKLLIYDASKLASGVPSRFKGSGYGTDFTLTISDLGCADAATYYCQSNYGYSRTDDTFFYGFGGGTKVEIKR	613	no binding (tested: 50 nM)
COR0058bb-SG1148 (antibody, human IgG1, kappa, V domains shown, Anti-C1r antibody) VH: QSVEESGGRLVTPGTPLTLTCTASGFDISNYNMQWVRQSPGKGLEWIGIIWSGGYTDYANWAKGRFTISATSTTVDLKSTSPTTEDTATYFCARQGANFGDYTVDLWGPGTLVTVSS VL: AYDMTQTPASVEVAVGGTVTIKCQASQSIRSSLAWYQQKPGQRPKLLIYRASTLASGVSSRFKGSGSGTQFTLTISGVECADAATYYCQQGYSNINVDNTFGGGTKVEIKR	235	no binding (tested: 50 nM)

Now from value to binder:

Time point of crossover (post-injection) [1] [s]	binding result [2]	Binder
101	no binding (tested: 50 nM)	COR0338gg-SG1148 (antibody, human IgG1, kappa, V domains shown, Anti-C1r antibody) VH: QSLEESGGGLVQPEGSLTLTCKASGIDFSSNAMCWVRQAPGKGLEWIACIYTGSTTIWYATWAKGRFTISKTSSTTVTLQLNSLTVADTATYFCARRASSSGYAFKLWGPGTLVTVSS VL: DVVMTQTPFSVSAAVGGTVTIKCQASESIYSNLAWYQQKPGQPPNLLIYGASTLESGVPSRFKGSGSGTEFTLTISDLECDDAAIYYCQCTYDDSSTFGGGTKVEIKR
432	no binding (tested: 50 nM)	COR0212bb-SG1148 (antibody, human IgG1, kappa, V domains shown, Anti-C1r antibody) VH: QEQLKESGGGLVTPGGTLTLTCTASGFSLSSYDMSWVRQAPGKGLDWIGIINTGGSAYYATWAKGRFTISKTSTTVDLKITSPTTEDTATYFCGRKINDAFDPWGPGTLVTVSS VL: AQVLTQTPFSVSAAVGGTVTINCQASESISSNLAWYQQKPGQPPKLLIYDASDLASGVPSRFKGSGSGKQFTLTISGVQCDDAATYFCQHGWIYDTIDSNCFGGGTKVEIKR
197	no binding (tested: 50 nM)	COR0208cc-SG1148 (antibody, human IgG1, kappa, V domains shown, Anti-C1r antibody; also called COR208; COR208cc(-SG1148)) VH: QSVEESGGRLVTPGTPLTLTCTVSGFSLSNYYMNWVRQAPGKGLEWIGIIASDDNTWYASWAKGRFTISKTSTTVDLKITSPTTEDTATYFCARDLDVGYGSGWYDLWGQGTLVTVSS VL: AAVLTQTPSPVSVAVGGTVTINCQASQSVYNNNYLAWYQQEPGHRPKLLIYRASKLASGVPSRFSGSGSGTQFTLTISGVQCDDAATYYCLGGYDDFTDTTFGGGTKVEIKR
218	no binding (tested: 50 nM)	COR0278bb-SG1148 (antibody, human IgG1, kappa, V domains shown, Anti-C1r antibody) VH: QSLEESGGRLVTPGTPLTLTCTASGFSLSSYDMTWVRQAPGKGLEWIGIIYTLGSAYYASWAKGRFTISRTSTTVDLKMTSPTTEDTATYFCARGGDSYGAVDTAFDLWGPGTLVTVSS VL: AQVLTQTPSPVSAAVGGTVTISCQSSPSVYSNYLSWYQQKPGQPPKLLIYRASRLASGVPSRFKGSGSGTQFTLTISEVQCDDAATYYCQGYFGNGINAFGGGTKVEIKR
